Laboratory results published in EP1763578B1, “TANNASE” (priority 2004, dated 2006).

What was measured:
[1] = target: T1, Arxula adeninivorans LS3 Tannase II (Atan2p), SEQ ID NO: 4 (Blastobotrys adeninivorans, UniProt Q5GMI6); test: Tannase assay with rhodanine, KM determination with tannin; type: biochemical; conditions: tannin solution 0,05-0,75 mg/ml, 15 min at 30°C; Lineweaver-Burk plot; read-out: KM-Wert (Tannin)
T1 sequence (Q5GMI6 29-448): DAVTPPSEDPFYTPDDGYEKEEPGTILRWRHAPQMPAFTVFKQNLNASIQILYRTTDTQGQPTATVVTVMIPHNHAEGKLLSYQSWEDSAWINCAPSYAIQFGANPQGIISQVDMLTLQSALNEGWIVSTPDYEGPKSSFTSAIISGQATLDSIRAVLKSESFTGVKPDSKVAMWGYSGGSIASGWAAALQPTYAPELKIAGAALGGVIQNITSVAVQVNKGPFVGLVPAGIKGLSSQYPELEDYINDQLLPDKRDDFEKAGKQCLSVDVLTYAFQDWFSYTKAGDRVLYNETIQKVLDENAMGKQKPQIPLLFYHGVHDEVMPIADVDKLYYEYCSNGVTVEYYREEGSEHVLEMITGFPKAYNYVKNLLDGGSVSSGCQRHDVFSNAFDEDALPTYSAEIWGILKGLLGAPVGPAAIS
Method: (§1) Der Nachweis der Tannase mit Hilfe des Rhodanins, wurde nach einer Methode von Sharma et al. (Sharma S, Bhat TK, Dawra RK (2000) A spectrophotometric method for assay of tannase using Rhodanine. Anal. Biochem. 279: 85-89, 2000) durchgeführt.
(§2) Als Test-Kontrolle wurden 450 µl Puffer und 50 µl eingeengter Kulturüberstand zusammenpipettiert. Als Blank-Kontrolle wurden 250 µl der Substratlösung und 250 µl Puffer zusammengegeben. Diese drei verschiedenen Ansätze wurden anschließend für 5 Min bei 30°C inkubiert. […] Nach anschließender Inkubation für 5 Min bei 30°C wurden weitere 200 µl 0,5 M KOH zugegeben. Nach wiederholter Inkubation bei 30°C für 5 Min wird die Absorbtion der verschiedenen Ansätze bei 520 nm im Spektrophotometer (UV160-A/Shimadzu) gegen Wasser gemessen. Die Absorption kann nach folgender Formel berechnet werden: ΔA520nm = (ATest-ABlank)-(AKontrolle-ABlank) [formula]
(§3) Mit Hilfe einer Eichkurve wurde dann die entstandene Gallatmenge ermittelt. Einheiten/Enzym = ((μmol gebildetes Gallat/min)*(Vf))/((0, 05)) [formula] Vf = Verdünnungsfaktor 0,05 = eingesetztes Probevolumen (in Milliliter) Eine Einheit ist definiert als µmol gebildetes Gallat pro Minute.
Zur Bestimmung des KM-Wertes wurde zu je 50µl Tannase-Probe 250µl Tanninlösung in Konzentrationen von 0,05 mg/ml bis 0,75 mg/ml zugegeben, alles 15 Min bei 30°C inkubiert und die Tannaseaktivität gemessen. […]

[2] = test system: Arxula adeninivorans LS3 Tannase I (Atan1p), SEQ ID NO: 3; test: as above; type: biochemical; conditions: tannin solution 0,05-0,75 mg/ml, 15 min at 30°C; Lineweaver-Burk plot; read-out: KM-Wert (Tannin)
Method: as §1, §2, §3
Zur Bestimmung des KM-Wertes wurde zu je 50 µl Tannase 250 µl Tanninlösung in Konzentrationen von 0,05 mg/ml bis 0,75 mg/ml zugegeben, alles 15 Min bei 30°C inkubiert und die Tannaseaktivität wie beschrieben ermittelt. […]

[3] = substrate: CCCCCCCCCC(=O)Oc1ccc([N+](=O)[O-])cc1; test: Lipase assay with p-nitrophenyl ester, native enzyme; type: biochemical, Arxula adeninivorans LS3; conditions: other: native lipase; pH 7.5; 30.0 °C
Method: (§4) Für diese Bestimmung wurde eine frische Stammlösung (3mM […] in 10 ml Propanol durch 10 Min vortexen lösen) angesetzt. Für den Messansatz wurden 850 µl 0,05 M Na-Phosphat-Puffer pH 7,5 und 100 µl der Stammlösung gemischt und anschließend 50 µl Probelösung zugegeben. Als Kontrolle wurden 900 µl Puffer und 100 µl Stammlösung zusammengegeben. Beide Ansätze wurden für 5-10 Min bei 30°C inkubiert und anschließend 1 ml Aceton zum Abstoppen der Reaktion zugegeben. Danach wurde die Absorption bei 410 nm im Spektrometer (UV160-A/Shimadzu) gegen Wasser gemessen: Die Enzymaktivität kann dann nach folgender Formel berechnet werden: Einheiten/ml Enzym = ((ΔA410nm/min Test-ΔA410nm/min Blank)*(Vf))/((14, 800)*(0, 05)) [formula] Vf = Verdünnungsfaktor 14800 I mol^-1 cm^-1= Extinktionskoeffizient von p-Nitrophenol bei 410nm (Quinn et al. 1982) 0,05 = eingesetztes Probevolumen (in Milliliter) Eine Einheit ist definiert als µmol gebildetes p-Nitrophenol pro Minute.
(§5) Da Atan2p eine sehr hohe Homologie zu Lipasen aufweist, wurde A. adeninivorans G1211/pAL-ALEU2m-ATAN2 parallel auf sekretorische Lipase-Aktivität mit p-Nitrophenyl-Caprate geprüft. Dazu erfolgte eine Anzucht in HMM + 2% Glukose bzw. HMM + 2% Xylitol, Bedingungen unter denen das native ATAN2-Gen nicht exprimiert wird, d. h. auch kein natives sekretorisches Atan2p auftritt. […]

[4] = substrate: CCCCCCCCCC(=O)Oc1ccc([N+](=O)[O-])cc1; test: Lipase assay with p-nitrophenyl ester, recombinant enzyme; type: biochemical, Arxula adeninivorans; conditions: other: recombinant lipase; pH 7.5; 30.0 °C
Method: as §4, §5

Question: Tannin was tested. Which Km [1] did it give?
Answer: Its Km is 1100 µM.

Question: And the Km [2]?
Answer: Its Km is 150 µM.

B1: Tannase II (Atan2p nativ, native Lipase) secreted by A. adeninivorans LS3, SEQ ID NO: 4 (Blastobotrys adeninivorans) (protein)
chain: DAVTPPSEDPFYTPDDGYEKEEPGTILRWRHAPQMPAFTVFKQNLNASIQILYRTTDTQGQPTATVVTVMIPHNHAEGKLLSYQSWEDSAWINCAPSYAIQFGANPQGIISQVDMLTLQSALNEGWIVSTPDYEGPKSSFTSAIISGQATLDSIRAVLKSESFTGVKPDSKVAMWGYSGGSIASGWAAALQPTYAPELKIAGAALGGVIQNITSVAVQVNKGPFVGLVPAGIKGLSSQYPELEDYINDQLLPDKRDDFEKAGKQCLSVDVLTYAFQDWFSYTKAGDRVLYNETIQKVLDENAMGKQKPQIPLLFYHGVHDEVMPIADVDKLYYEYCSNGVTVEYYREEGSEHVLEMITGFPKAYNYVKNLLDGGSVSSGCQRHDVFSNAFDEDALPTYSAEIWGILKGLLGAPVGPAAIS
Question: For B1, which Km [3] is on record?
Answer: Its Km is 400 µM.

Question: And the Vmax [3]?
Answer: The Vmax was 0,043 µmol x min^-1.

B2: Tannase II (Atan2p rekombinant, rekombinante Lipase) secreted by A. adeninivorans G1211/pAL-ALEU2m-ATAN2, SEQ ID NO: 4 (Blastobotrys adeninivorans) (protein)
chain: DAVTPPSEDPFYTPDDGYEKEEPGTILRWRHAPQMPAFTVFKQNLNASIQILYRTTDTQGQPTATVVTVMIPHNHAEGKLLSYQSWEDSAWINCAPSYAIQFGANPQGIISQVDMLTLQSALNEGWIVSTPDYEGPKSSFTSAIISGQATLDSIRAVLKSESFTGVKPDSKVAMWGYSGGSIASGWAAALQPTYAPELKIAGAALGGVIQNITSVAVQVNKGPFVGLVPAGIKGLSSQYPELEDYINDQLLPDKRDDFEKAGKQCLSVDVLTYAFQDWFSYTKAGDRVLYNETIQKVLDENAMGKQKPQIPLLFYHGVHDEVMPIADVDKLYYEYCSNGVTVEYYREEGSEHVLEMITGFPKAYNYVKNLLDGGSVSSGCQRHDVFSNAFDEDALPTYSAEIWGILKGLLGAPVGPAAIS
Question: Which Km [4] does the source give for B2 here?
Answer: The Km was 710 µM.

Question: What about the Vmax [4] of the same molecule?
Answer: Its Vmax is 0,036 µmol x min^-1.
